Reference: article PMC4914967, “An evolutionarily conserved SSNA1/DIP13 homologue is a component of both basal and apical complexes of Toxoplasma gondii” (Scientific Reports, 2016)

Target: the molecule itself
Experiment: SDS-PAGE with Coomassie staining and anti-His immunoblot; purified His-tagged recombinant TgDIP13 resolved on a gel; bands at ~18 kDa (monomer) and ~36 kDa (dimer)

B1: His-tagged recombinant TgDIP13 (Toxoplasma gondii SSNA1/DIP13 homologue) (natural protein, UniProt A0A125YRV3 1-150, looked up)
chain: MTSTTNSNLHNYNHELVACIDDLRRKREEVHRQIIKEEEDRAKVQKEIALLQERLQKLNDSITRKIQARNEYDKTILETEAAYTKILESAQTLLHVLKRESVHLGRKTSGDRAELPGIGITGVGVDYSPNSVSELSHRRAEKGKPTAGAG
notes: TgDIP13, the SSNA1/DIP13 homologue of Toxoplasma gondii (ToxoDB entry TGME49_295450); the TgDIP13 gene was amplified from T. gondii cDNA with primers ML2448/ML2449 and cloned NdeI/XhoI into pET24a+; Apparent mass of the monomer ~18 kDa; also called T. gondii SSNA1/DIP13 homologue; not shown: His6, C-terminal, kept
  stoichiometry N: 2
